The results in this text go back to US20140080757A1 (ZEALAND PHARMA A S, published 2014).

Numbered stars: 1 amine (or outer) side, 2 acyl side, 3 side chain; on linkers, the order of the positions; unused ones are H or OH. Side chains are listed from the residue outwards. * marks the point of attachment. γGlu = O=C(O)[C@H](CCC(=O)[*:2])N[*:1]; Palmitoyl = CCCCCCCCCCCCCCCC(=O)*

Holding throughout (test): cell-based or functional assay
Experiment [1] concerns the target T1, endogenous GLP-1 receptor of a murine insulinoma cell line (murine, UniProt O35659 22-463).
T1 sequence (looked up): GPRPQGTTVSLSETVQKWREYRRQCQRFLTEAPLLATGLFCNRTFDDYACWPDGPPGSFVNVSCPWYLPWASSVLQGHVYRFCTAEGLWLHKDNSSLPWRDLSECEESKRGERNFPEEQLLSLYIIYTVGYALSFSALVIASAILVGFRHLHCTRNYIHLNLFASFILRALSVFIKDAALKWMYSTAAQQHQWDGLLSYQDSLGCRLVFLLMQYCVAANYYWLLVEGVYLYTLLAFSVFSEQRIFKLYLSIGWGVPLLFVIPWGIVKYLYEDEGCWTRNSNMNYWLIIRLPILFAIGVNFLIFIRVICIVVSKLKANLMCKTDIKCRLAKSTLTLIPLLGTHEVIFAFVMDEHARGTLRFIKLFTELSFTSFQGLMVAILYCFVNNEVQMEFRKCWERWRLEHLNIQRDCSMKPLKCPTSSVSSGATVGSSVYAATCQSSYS

The target in experiment [2] is endogenous glucagon receptor of primary rat hepatocytes (rat, UniProt P30082 27-485).
The target in experiment [3] is human glucagon receptor (Glucagon-R) (human, UniProt P47871 26-477).
The target in experiment [4] is human glucagon-like peptide 1 receptor (GLP-1R) (human, UniProt P43220 24-463).

Sequence of human glucagon receptor (Glucagon-R) (P47871 26-477): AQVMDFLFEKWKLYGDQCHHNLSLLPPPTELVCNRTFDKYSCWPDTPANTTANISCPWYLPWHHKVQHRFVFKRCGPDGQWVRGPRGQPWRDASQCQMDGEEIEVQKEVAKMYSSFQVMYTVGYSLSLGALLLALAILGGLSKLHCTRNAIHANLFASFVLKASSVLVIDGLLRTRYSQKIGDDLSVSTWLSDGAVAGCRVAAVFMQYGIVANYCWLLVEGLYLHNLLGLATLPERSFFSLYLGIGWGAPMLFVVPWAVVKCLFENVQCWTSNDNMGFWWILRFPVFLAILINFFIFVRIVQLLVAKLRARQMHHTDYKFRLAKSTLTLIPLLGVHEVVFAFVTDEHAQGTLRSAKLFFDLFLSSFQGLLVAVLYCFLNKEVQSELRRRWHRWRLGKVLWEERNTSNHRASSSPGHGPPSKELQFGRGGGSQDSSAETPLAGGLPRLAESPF
Sequence of endogenous glucagon receptor of primary rat hepatocytes (P30082 27-485): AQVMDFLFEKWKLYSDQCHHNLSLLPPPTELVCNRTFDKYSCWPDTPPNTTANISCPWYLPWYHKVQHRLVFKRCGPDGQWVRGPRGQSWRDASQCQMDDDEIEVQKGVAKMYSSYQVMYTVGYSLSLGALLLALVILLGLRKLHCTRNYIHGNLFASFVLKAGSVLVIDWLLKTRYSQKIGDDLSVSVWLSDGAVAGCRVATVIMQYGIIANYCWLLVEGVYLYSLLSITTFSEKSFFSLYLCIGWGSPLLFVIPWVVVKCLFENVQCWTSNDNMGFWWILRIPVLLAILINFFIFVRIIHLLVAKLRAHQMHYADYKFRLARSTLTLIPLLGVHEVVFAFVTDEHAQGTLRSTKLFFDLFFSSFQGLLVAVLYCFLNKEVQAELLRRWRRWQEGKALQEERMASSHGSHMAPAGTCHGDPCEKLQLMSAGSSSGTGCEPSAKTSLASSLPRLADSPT

B1: Compound 8 (peptide)
peptide: H-HSQGTFTSDYSKYLDSK([γGlu-Palmitoyl])AAHDFVEWLLS-NH2
SMILES: CCCCCCCCCCCCCCCC(=O)N[C@@H](CCC(=O)NCCCC[C@H](NC(=O)[C@H](CO)NC(=O)[C@H](CC(=O)O)NC(=O)[C@H](CC(C)C)NC(=O)[C@H](Cc1ccc(O)cc1)NC(=O)[C@H](CCCCN)NC(=O)[C@H](CO)NC(=O)[C@H](Cc1ccc(O)cc1)NC(=O)[C@H](CC(=O)O)NC(=O)[C@H](CO)NC(=O)[C@@H](NC(=O)[C@H](Cc1ccccc1)NC(=O)[C@@H](NC(=O)CNC(=O)[C@H](CCC(N)=O)NC(=O)[C@H](CO)NC(=O)[C@@H](N)Cc1c[nH]cn1)[C@@H](C)O)[C@@H](C)O)C(=O)N[C@@H](C)C(=O)N[C@@H](C)C(=O)N[C@@H](Cc1c[nH]cn1)C(=O)N[C@@H](CC(=O)O)C(=O)N[C@@H](Cc1ccccc1)C(=O)N[C@H](C(=O)N[C@@H](CCC(=O)O)C(=O)N[C@@H](Cc1c[nH]c2ccccc12)C(=O)N[C@@H](CC(C)C)C(=O)N[C@@H](CC(C)C)C(=O)N[C@@H](CO)C(N)=O)C(C)C)C(=O)O
On to B1, for which the “EC50 GLP-1R (murine insulinoma cells) [nM] (cAMP)” value (shortened to “EC50 GLP-1R … (cAMP)”) in experiment [1] came to 0.95 nM. The “EC50 GLP-1R Rat hepat. [nM] (inhibition of glycogen synthesis)” value in experiment [2] was 1.1 nM. Moreover, the “EC50 hGCGR CHO-K1 [nM] (cAMP)” value in experiment [3] stood at 0.29 nM. Further, in experiment [4], the “EC50 hGLP-1R CHO-K1 [nM] (cAMP)” value came to 0.41 nM and the “Ratio GLP-1/Glucagon (EC50 hGLP-1R / EC50 hGCGR)” value turned out to be 1.41 ratio.

In the case of HXQGTFTSDYSKYLDSXAAHDFVEWLLSA (Aib at position 2; Lys 17 K(Hexadecanoyl-isoGlu); C-terminal -OH) [Compound 13], in experiment [1], the “EC50 GLP-1R … (cAMP)” value was determined as 1.06 nM. Moreover, in experiment [2], the “EC50 GLP-1R Rat hepat. [nM] (inhibition of glycogen synthesis)” value came out at 0.67 nM. Also, the “EC50 hGCGR CHO-K1 [nM] (cAMP)” value in experiment [3] worked out at 0.98 nM. For the same molecule, in experiment [4], the “EC50 hGLP-1R CHO-K1 [nM] (cAMP)” value turned out to be 0.51 nM and the “Ratio GLP-1/Glucagon (EC50 hGLP-1R / EC50 hGCGR)” value was 0.52 ratio.

B2: Compound 12 (peptide)
peptide: H-HSQGTFTSDYSRYLDSK([γGlu-Palmitoyl])AAHDFVEWLLSA-NH2
SMILES: CCCCCCCCCCCCCCCC(=O)N[C@@H](CCC(=O)NCCCC[C@H](NC(=O)[C@H](CO)NC(=O)[C@H](CC(=O)O)NC(=O)[C@H](CC(C)C)NC(=O)[C@H](Cc1ccc(O)cc1)NC(=O)[C@H](CCCNC(=N)N)NC(=O)[C@H](CO)NC(=O)[C@H](Cc1ccc(O)cc1)NC(=O)[C@H](CC(=O)O)NC(=O)[C@H](CO)NC(=O)[C@@H](NC(=O)[C@H](Cc1ccccc1)NC(=O)[C@@H](NC(=O)CNC(=O)[C@H](CCC(N)=O)NC(=O)[C@H](CO)NC(=O)[C@@H](N)Cc1c[nH]cn1)[C@@H](C)O)[C@@H](C)O)C(=O)N[C@@H](C)C(=O)N[C@@H](C)C(=O)N[C@@H](Cc1c[nH]cn1)C(=O)N[C@@H](CC(=O)O)C(=O)N[C@@H](Cc1ccccc1)C(=O)N[C@H](C(=O)N[C@@H](CCC(=O)O)C(=O)N[C@@H](Cc1c[nH]c2ccccc12)C(=O)N[C@@H](CC(C)C)C(=O)N[C@@H](CC(C)C)C(=O)N[C@@H](CO)C(=O)N[C@@H](C)C(N)=O)C(C)C)C(=O)O
Regarding B2, the “EC50 GLP-1R … (cAMP)” value in experiment [1] came out at 1.62 nM. Moreover, the “EC50 GLP-1R Rat hepat. [nM] (inhibition of glycogen synthesis)” value in experiment [2] stood at 0.24 nM. In addition, in experiment [3], the “EC50 hGCGR CHO-K1 [nM] (cAMP)” value was 0.43 nM. In experiment [4], the “EC50 hGLP-1R CHO-K1 [nM] (cAMP)” value stood at 0.37 nM and the “Ratio GLP-1/Glucagon (EC50 hGLP-1R / EC50 hGCGR)” value came to 0.86 ratio.

B3: Compound 7 (peptide)
peptide: H-HSQGTFTSDYSKYLDSK([γGlu-Palmitoyl])AAEDFVEWLLRA-NH2
SMILES: CCCCCCCCCCCCCCCC(=O)N[C@@H](CCC(=O)NCCCC[C@H](NC(=O)[C@H](CO)NC(=O)[C@H](CC(=O)O)NC(=O)[C@H](CC(C)C)NC(=O)[C@H](Cc1ccc(O)cc1)NC(=O)[C@H](CCCCN)NC(=O)[C@H](CO)NC(=O)[C@H](Cc1ccc(O)cc1)NC(=O)[C@H](CC(=O)O)NC(=O)[C@H](CO)NC(=O)[C@@H](NC(=O)[C@H](Cc1ccccc1)NC(=O)[C@@H](NC(=O)CNC(=O)[C@H](CCC(N)=O)NC(=O)[C@H](CO)NC(=O)[C@@H](N)Cc1c[nH]cn1)[C@@H](C)O)[C@@H](C)O)C(=O)N[C@@H](C)C(=O)N[C@@H](C)C(=O)N[C@@H](CCC(=O)O)C(=O)N[C@@H](CC(=O)O)C(=O)N[C@@H](Cc1ccccc1)C(=O)N[C@H](C(=O)N[C@@H](CCC(=O)O)C(=O)N[C@@H](Cc1c[nH]c2ccccc12)C(=O)N[C@@H](CC(C)C)C(=O)N[C@@H](CC(C)C)C(=O)N[C@@H](CCCNC(=N)N)C(=O)N[C@@H](C)C(N)=O)C(C)C)C(=O)O
Consider B3, for which, in experiment [1], the “EC50 GLP-1R … (cAMP)” value stood at 0.84 nM. Besides, the “EC50 GLP-1R Rat hepat. [nM] (inhibition of glycogen synthesis)” value in experiment [2] worked out at 1.92 nM. Further, the “EC50 hGCGR CHO-K1 [nM] (cAMP)” value in experiment [3] worked out at 0.45 nM. For the same molecule, in experiment [4], the “EC50 hGLP-1R CHO-K1 [nM] (cAMP)” value was determined as 0.27 nM and the “Ratio GLP-1/Glucagon (EC50 hGLP-1R / EC50 hGCGR)” value was determined as 0.6 ratio.

B4: Compound 9 (peptide)
peptide: H-HSQGTFTSDYSKYLDSK([γGlu-Palmitoyl])AAHDFVEWLLR-OH
SMILES: CCCCCCCCCCCCCCCC(=O)N[C@@H](CCC(=O)NCCCC[C@H](NC(=O)[C@H](CO)NC(=O)[C@H](CC(=O)O)NC(=O)[C@H](CC(C)C)NC(=O)[C@H](Cc1ccc(O)cc1)NC(=O)[C@H](CCCCN)NC(=O)[C@H](CO)NC(=O)[C@H](Cc1ccc(O)cc1)NC(=O)[C@H](CC(=O)O)NC(=O)[C@H](CO)NC(=O)[C@@H](NC(=O)[C@H](Cc1ccccc1)NC(=O)[C@@H](NC(=O)CNC(=O)[C@H](CCC(N)=O)NC(=O)[C@H](CO)NC(=O)[C@@H](N)Cc1c[nH]cn1)[C@@H](C)O)[C@@H](C)O)C(=O)N[C@@H](C)C(=O)N[C@@H](C)C(=O)N[C@@H](Cc1c[nH]cn1)C(=O)N[C@@H](CC(=O)O)C(=O)N[C@@H](Cc1ccccc1)C(=O)N[C@H](C(=O)N[C@@H](CCC(=O)O)C(=O)N[C@@H](Cc1c[nH]c2ccccc12)C(=O)N[C@@H](CC(C)C)C(=O)N[C@@H](CC(C)C)C(=O)N[C@@H](CCCNC(=N)N)C(=O)O)C(C)C)C(=O)O
On to B4, for which the “EC50 GLP-1R … (cAMP)” value in experiment [1] amounted to 1.02 nM. In addition, the “EC50 GLP-1R Rat hepat. [nM] (inhibition of glycogen synthesis)” value in experiment [2] came to 0.37 nM. Besides, the “EC50 hGCGR CHO-K1 [nM] (cAMP)” value in experiment [3] turned out to be 0.25 nM. Also, in experiment [4], the “EC50 hGLP-1R CHO-K1 [nM] (cAMP)” value was 0.35 nM and the “Ratio GLP-1/Glucagon (EC50 hGLP-1R / EC50 hGCGR)” value is 1.4 ratio.

B5: Compound 10 (peptide)
peptide: H-HSQGTFTSDYSKYLDEK([γGlu-Palmitoyl])AAHEFVEWLESA-NH2
SMILES: CCCCCCCCCCCCCCCC(=O)N[C@@H](CCC(=O)NCCCC[C@H](NC(=O)[C@H](CCC(=O)O)NC(=O)[C@H](CC(=O)O)NC(=O)[C@H](CC(C)C)NC(=O)[C@H](Cc1ccc(O)cc1)NC(=O)[C@H](CCCCN)NC(=O)[C@H](CO)NC(=O)[C@H](Cc1ccc(O)cc1)NC(=O)[C@H](CC(=O)O)NC(=O)[C@H](CO)NC(=O)[C@@H](NC(=O)[C@H](Cc1ccccc1)NC(=O)[C@@H](NC(=O)CNC(=O)[C@H](CCC(N)=O)NC(=O)[C@H](CO)NC(=O)[C@@H](N)Cc1c[nH]cn1)[C@@H](C)O)[C@@H](C)O)C(=O)N[C@@H](C)C(=O)N[C@@H](C)C(=O)N[C@@H](Cc1c[nH]cn1)C(=O)N[C@@H](CCC(=O)O)C(=O)N[C@@H](Cc1ccccc1)C(=O)N[C@H](C(=O)N[C@@H](CCC(=O)O)C(=O)N[C@@H](Cc1c[nH]c2ccccc12)C(=O)N[C@@H](CC(C)C)C(=O)N[C@@H](CCC(=O)O)C(=O)N[C@@H](CO)C(=O)N[C@@H](C)C(N)=O)C(C)C)C(=O)O
For B5, the “EC50 GLP-1R … (cAMP)” value in experiment [1] was determined as 0.33 nM. Also, the “EC50 GLP-1R Rat hepat. [nM] (inhibition of glycogen synthesis)” value in experiment [2] was determined as 0.04 nM. Further, in experiment [3], the “EC50 hGCGR CHO-K1 [nM] (cAMP)” value was 0.23 nM. Moreover, in experiment [4], the “EC50 hGLP-1R CHO-K1 [nM] (cAMP)” value was found to be 0.23 nM and the “Ratio GLP-1/Glucagon (EC50 hGLP-1R / EC50 hGCGR)” value amounted to 1 ratio.
